Target: Light-Harvesting Complex II (LHCII) (spinach)
Test: native gel or EMSA

## Light-Harvesting Complex II (LHCII)
  stoichiometry N: 3

From article doi:10.1101/609255
